# According to patent publication US20200262877A1, “ION CHANNEL-BINDING PEPTIDES AND METHODS OF USE THEREOF” (priority 2017, published 2020):
# Tests used:
# 5HT3a = target: T1, 5HT3a (Homo sapiens, UniProt P46098); assay: Ion channel panel (IonWorks Barracuda): 5HT3a; assay type: cell-based
# T1 construct: host or cells: HEK293 or CHO
# T1 sequence (P46098 whole entry, looked up): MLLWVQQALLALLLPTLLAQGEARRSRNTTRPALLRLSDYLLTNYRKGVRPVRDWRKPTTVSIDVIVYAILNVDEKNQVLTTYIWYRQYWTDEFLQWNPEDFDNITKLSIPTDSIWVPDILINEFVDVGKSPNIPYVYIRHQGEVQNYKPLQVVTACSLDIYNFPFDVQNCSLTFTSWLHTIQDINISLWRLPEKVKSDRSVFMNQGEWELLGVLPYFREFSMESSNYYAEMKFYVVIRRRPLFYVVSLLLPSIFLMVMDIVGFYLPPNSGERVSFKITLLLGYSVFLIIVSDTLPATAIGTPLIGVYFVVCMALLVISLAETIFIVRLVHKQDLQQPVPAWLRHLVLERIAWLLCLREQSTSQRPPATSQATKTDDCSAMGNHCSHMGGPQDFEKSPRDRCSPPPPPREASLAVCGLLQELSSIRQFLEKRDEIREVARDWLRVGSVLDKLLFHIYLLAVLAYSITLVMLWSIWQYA
# How it was run: (§1)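 Peptides were tested in duplicate at final 20 μM and 200 nM, with concentration set by amino acid analysis, in HEPES-buffered saline. They were applied for at least 5 min to HEK293 or CHO cells transfected with each channel. Currents were expressed as % inhibition, 1-(Ipeptide/Icontrol)×100, or % activation, Ipeptide/Icontrol×100, against a channel-matched reference compound.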
# TRPV1 = target: T2, TRPV1 (Homo sapiens, UniProt Q8NER1); assay: Ion channel panel (IonWorks Barracuda): TRPV1; assay type: cell-based; conditions: 100% = no change, <100% = inhibition
# T2 construct: host or cells: HEK293 or CHO
# How it was run: as §1
# Kir2.1 = target: T3, Kir2.1 (Homo sapiens, UniProt P63252); assay: Ion channel panel (IonWorks Barracuda): Kir2.1; assay type: cell-based; conditions: 100% = no change, <100% = inhibition
# T3 construct: host or cells: HEK293 or CHO
# How it was run: as §1
# Nav1.7 = target: T4, Nav1.7 (Homo sapiens, UniProt Q15858); assay: cell-based; assay type: cell-based; conditions: 100% = no change; for Activity of Nav1.7 with peptide, expressed as a percentage of the reference compound: peptide at 0.2 μM; for Activity of Nav1.7 with peptide (percentage of the reference compound): peptide at 20 μM
# T4 construct: host or cells: HEK293 or CHO
# TRPA1 = target: T5, TRPA1 (Homo sapiens, UniProt O75762); assay: Ion channel panel (IonWorks Barracuda): TRPA1; assay type: cell-based; conditions: 100% = no change, <100% = inhibition
# T5 construct: host or cells: HEK293 or CHO
# How it was run: as §1
# α4β2 = target: T6, α4β2 (Homo sapiens, UniProt P17787+P43681); assay: Ion channel panel (IonWorks Barracuda): α4β2; assay type: cell-based; conditions: 100% = no change, <100% = inhibition
# T6 construct: host or cells: HEK293 or CHO
# How it was run: as §1
# NR2B = target: T7, NR2B (Homo sapiens, UniProt Q13224); assay: Ion channel panel (IonWorks Barracuda): NR2B; assay type: cell-based; conditions: 100% = no change, <100% = inhibition
# T7 construct: host or cells: HEK293 or CHO
# How it was run: as §1
# GABA = assay: Ion channel panel (IonWorks Barracuda): GABA; assay type: cell-based; conditions: 100% = no change, <100% = inhibition
# How it was run: as §1
# Nav1.5 = Nav1.5 (Homo sapiens, UniProt Q14524); assay: in vitro; conditions: 100% = no change; for Activity of Nav1.5 with peptide, expressed as a percentage of the reference compound: peptide at 0.2 μM; for Activity of Nav1.5 with peptide (percentage of the reference compound): peptide at 20 μM
# How it was run: as §1
# hERG = hERG (Homo sapiens, UniProt Q12809); assay: in vitro; conditions: 100% = no change, <100% = inhibition
# How it was run: as §1
# Kv1.1 = target: T8, Kv1.1 (Homo sapiens, UniProt Q09470); assay: cell-based; assay type: cell-based; conditions: 100% = no change, <100% = inhibition
# T8 construct: host or cells: HEK293 or CHO
# How it was run: as §1
# Kv1.3 = target: T9, Kv1.3 (Homo sapiens, UniProt P22001); assay: cell-based; assay type: cell-based; conditions: 100% = no change, <100% = inhibition
# T9 construct: host or cells: HEK293 or CHO
# How it was run: as §1
# Kv1.2 = target: T10, Kv1.2 (Homo sapiens, UniProt P16389); assay: cell-based; assay type: cell-based; conditions: 100% = no change, <100% = inhibition
# T10 construct: host or cells: HEK293 or CHO
# How it was run: as §1
# Kv2.1 = target: T11, Kv2.1 (Homo sapiens, UniProt Q14721); assay: cell-based; conditions: 100% = no change, <100% = inhibition
# T11 construct: host or cells: HEK293 or CHO
# How it was run: as §1
# Cav2.1 = target: T12, Cav2.1 (Homo sapiens, UniProt O00555); assay: cell-based; conditions: 100% = no change, <100% = inhibition
# T12 construct: host or cells: HEK293 or CHO
# How it was run: as §1
# Cav2.2 = target: T13, Cav2.2 (Homo sapiens, UniProt Q00975); assay: cell-based; conditions: 100% = no change, <100% = inhibition
# T13 construct: host or cells: HEK293 or CHO
# How it was run: as §1
# NR2A = target: T14, NR2A (Homo sapiens, UniProt Q12879); assay: Ion channel panel (IonWorks Barracuda): NR2A; assay type: cell-based; conditions: 100% = no change, <100% = inhibition
# T14 construct: host or cells: HEK293 or CHO
# How it was run: as §1
# α3β4 = target: T15, α3β4 (Homo sapiens, UniProt P30926+P32297); assay: Ion channel panel (IonWorks Barracuda): α3β4; assay type: cell-based; conditions: 100% = no change, <100% = inhibition
# T15 construct: host or cells: HEK293 or CHO
# How it was run: as §1
# panel of 20 ion channels = assay type: cell-based; conditions: potassium channels of the panel; 0.2 or 20 μM; FIG. 2
# Experimental: This example describes a method for assaying ion channel activity in cells.
# Peptides were screened in duplicate at final concentrations of 20 μM and 200 nM, as determined by amino acid analysis, and diluted into HEPES buffered physiological saline (HBPS). HEK293 or CHO cells from the American Type Culture Collection (ATCC) were transfected with the appropriate ion channel before use. HEK293 cells were grown in Dulbecco's Modified Eagle Medium/Nutrient Mixture F-12, and CHO cells were cultured in Ham's F-12 media. All cultures were supplemented with 10% fetal bovine serum, 100 U/ml penicillin G, 100 μg/ml streptomycin sulfate, and the appropriate selection antibiotics. Prior to use, cells were washed twice with Hank's Balanced Salt Solution, and treated with Accutase cell detachment solution (Sigma-Aldrich). Cells were then washed. Peptides and controls were incubated with cells for at least five minutes.
# Percent inhibition was defined as: (1-(Ipeptide/Icontrol))×100%).
# Percent values were calculated using the following formula: % activation=(IPeptide/Icontrol)×100%, where IPeptide is the current produced by co-application a peptide with agonist, and Icontrol refers to the current produced by stimulation in control. Control used for each ion channel is the reference compound matched to a particular channel, as illustrated in TABLE 10 below.
# [1] = first of two Nav1.7 columns (probably TP1)
# [2] = second of two Nav1.7 columns (probably TP2)
# [3] = first of two Nav1.5 columns (probably TP1)
# [4] = second of two Nav1.5 columns (probably TP2)
# Nav1.5, sequence (Q14524 whole entry): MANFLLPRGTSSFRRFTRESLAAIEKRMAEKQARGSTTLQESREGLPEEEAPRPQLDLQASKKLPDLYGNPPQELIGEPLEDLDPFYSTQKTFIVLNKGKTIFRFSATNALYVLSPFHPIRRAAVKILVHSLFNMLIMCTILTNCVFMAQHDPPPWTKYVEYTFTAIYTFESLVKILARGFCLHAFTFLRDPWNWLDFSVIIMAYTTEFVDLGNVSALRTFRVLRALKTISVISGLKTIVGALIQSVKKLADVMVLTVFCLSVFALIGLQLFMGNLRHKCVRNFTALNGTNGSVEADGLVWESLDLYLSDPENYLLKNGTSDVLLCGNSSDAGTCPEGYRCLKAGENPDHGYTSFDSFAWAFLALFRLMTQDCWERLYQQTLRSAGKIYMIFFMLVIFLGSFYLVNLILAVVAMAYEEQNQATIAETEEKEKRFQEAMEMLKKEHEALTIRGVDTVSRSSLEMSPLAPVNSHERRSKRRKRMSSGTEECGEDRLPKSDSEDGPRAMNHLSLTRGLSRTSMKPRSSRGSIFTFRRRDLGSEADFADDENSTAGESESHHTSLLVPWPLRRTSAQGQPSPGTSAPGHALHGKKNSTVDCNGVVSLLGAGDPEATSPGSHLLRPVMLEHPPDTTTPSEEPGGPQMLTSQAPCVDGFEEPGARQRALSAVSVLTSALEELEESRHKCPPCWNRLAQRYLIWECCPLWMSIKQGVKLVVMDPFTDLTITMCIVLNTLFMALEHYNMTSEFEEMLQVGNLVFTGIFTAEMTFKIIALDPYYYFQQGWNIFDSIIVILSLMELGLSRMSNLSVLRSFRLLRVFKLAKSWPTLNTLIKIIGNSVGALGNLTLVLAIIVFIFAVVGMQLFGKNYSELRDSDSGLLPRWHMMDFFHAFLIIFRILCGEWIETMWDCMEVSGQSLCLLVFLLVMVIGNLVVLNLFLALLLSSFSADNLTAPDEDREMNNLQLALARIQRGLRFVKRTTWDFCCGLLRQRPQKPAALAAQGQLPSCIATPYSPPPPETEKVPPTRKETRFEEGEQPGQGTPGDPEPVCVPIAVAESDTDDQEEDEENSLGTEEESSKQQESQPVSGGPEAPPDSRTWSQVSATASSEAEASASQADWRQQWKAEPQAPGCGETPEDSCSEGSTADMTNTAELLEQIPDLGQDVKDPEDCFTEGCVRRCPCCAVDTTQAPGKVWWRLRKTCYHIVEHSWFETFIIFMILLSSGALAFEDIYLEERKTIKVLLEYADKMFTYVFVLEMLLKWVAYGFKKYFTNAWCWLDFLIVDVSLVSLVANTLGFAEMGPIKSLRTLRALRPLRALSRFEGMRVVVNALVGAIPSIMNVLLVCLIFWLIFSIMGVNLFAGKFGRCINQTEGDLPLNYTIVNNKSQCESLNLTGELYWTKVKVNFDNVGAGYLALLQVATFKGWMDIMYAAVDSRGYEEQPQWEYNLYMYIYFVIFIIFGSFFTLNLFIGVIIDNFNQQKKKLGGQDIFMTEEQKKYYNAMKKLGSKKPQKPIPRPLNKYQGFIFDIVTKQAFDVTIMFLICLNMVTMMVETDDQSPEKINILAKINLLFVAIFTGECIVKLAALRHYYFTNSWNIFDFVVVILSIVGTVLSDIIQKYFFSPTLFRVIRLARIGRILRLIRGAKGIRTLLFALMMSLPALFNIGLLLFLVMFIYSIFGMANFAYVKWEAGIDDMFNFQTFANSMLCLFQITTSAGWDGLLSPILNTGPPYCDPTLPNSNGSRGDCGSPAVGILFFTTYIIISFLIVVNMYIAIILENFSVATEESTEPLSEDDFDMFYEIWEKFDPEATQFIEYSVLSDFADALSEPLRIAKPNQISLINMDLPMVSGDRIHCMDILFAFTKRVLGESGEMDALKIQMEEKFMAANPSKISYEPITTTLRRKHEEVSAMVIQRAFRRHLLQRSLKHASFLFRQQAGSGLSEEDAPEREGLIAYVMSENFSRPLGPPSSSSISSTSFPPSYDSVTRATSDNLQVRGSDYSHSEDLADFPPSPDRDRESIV
# T4 sequence (Q15858 whole entry): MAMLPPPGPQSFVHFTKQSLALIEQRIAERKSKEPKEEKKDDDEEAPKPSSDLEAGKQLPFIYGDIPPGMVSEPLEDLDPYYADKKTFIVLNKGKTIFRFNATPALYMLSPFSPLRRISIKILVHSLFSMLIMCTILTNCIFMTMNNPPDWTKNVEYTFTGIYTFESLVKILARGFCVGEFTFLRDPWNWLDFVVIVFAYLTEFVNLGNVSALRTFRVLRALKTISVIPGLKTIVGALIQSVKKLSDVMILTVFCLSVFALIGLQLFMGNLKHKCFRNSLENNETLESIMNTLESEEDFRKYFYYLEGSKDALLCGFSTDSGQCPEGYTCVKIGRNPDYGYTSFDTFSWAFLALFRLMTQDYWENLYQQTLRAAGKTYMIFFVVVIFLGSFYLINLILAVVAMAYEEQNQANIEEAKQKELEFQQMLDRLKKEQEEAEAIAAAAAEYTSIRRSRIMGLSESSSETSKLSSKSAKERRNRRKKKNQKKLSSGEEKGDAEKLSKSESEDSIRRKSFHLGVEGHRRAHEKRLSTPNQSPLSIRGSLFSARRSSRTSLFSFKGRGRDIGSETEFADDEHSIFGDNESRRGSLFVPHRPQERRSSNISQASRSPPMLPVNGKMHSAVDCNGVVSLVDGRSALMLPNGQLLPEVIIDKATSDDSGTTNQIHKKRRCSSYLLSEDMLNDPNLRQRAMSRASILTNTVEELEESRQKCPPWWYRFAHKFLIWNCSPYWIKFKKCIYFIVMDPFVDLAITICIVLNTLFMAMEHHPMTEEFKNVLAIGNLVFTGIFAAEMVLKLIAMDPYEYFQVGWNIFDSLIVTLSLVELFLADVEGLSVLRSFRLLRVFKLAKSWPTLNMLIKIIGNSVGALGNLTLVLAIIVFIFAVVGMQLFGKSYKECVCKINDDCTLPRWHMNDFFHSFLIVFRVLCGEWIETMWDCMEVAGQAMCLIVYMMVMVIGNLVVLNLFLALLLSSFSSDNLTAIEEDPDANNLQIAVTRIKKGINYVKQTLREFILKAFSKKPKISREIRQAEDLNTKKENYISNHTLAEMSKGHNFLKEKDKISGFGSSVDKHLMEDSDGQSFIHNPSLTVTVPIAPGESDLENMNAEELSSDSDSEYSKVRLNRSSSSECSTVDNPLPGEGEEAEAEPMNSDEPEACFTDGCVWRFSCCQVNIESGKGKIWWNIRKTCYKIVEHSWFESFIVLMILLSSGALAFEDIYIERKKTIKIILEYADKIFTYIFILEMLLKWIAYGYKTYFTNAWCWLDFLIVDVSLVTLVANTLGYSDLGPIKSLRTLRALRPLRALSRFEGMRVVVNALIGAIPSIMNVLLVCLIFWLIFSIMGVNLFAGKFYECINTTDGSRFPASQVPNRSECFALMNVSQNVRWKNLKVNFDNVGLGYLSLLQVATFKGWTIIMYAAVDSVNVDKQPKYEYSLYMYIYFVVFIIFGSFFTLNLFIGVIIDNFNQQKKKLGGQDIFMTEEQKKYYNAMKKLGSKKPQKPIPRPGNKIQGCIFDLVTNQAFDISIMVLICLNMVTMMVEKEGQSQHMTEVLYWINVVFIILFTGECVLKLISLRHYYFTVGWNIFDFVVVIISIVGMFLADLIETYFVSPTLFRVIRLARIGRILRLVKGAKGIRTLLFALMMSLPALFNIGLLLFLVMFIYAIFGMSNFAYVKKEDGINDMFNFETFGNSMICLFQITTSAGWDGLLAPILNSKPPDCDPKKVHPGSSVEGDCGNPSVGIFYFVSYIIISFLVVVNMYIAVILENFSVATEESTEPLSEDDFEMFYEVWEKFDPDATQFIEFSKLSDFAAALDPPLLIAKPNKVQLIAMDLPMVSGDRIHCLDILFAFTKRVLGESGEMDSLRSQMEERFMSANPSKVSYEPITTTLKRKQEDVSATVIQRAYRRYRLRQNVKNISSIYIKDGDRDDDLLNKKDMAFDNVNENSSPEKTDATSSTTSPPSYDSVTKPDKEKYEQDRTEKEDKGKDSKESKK
# T15 sequence (P30926 22-498): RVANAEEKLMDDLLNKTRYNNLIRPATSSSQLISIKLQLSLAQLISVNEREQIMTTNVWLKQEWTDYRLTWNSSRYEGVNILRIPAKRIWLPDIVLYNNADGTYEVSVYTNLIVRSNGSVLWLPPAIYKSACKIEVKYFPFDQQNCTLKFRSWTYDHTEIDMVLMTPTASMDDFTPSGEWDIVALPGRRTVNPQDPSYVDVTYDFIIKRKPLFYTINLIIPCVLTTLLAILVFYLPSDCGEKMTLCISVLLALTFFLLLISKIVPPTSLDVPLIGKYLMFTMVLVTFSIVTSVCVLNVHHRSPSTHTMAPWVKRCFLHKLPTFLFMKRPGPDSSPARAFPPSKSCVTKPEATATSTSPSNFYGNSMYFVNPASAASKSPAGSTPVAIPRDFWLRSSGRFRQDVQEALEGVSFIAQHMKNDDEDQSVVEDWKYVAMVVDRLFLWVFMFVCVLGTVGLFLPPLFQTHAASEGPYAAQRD
# T15 sequence (P32297 32-505): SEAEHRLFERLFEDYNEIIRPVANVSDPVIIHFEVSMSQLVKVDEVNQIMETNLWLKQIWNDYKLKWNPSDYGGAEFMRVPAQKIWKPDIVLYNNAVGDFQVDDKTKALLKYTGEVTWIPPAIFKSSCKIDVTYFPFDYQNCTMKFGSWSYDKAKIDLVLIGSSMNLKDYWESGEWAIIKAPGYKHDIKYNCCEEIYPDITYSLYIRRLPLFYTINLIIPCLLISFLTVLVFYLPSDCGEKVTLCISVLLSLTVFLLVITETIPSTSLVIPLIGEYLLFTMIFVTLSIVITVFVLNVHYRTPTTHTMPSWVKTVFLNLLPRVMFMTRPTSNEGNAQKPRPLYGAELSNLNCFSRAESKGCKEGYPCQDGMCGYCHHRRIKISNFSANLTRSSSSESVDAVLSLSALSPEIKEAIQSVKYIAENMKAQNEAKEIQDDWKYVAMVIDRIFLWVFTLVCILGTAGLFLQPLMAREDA
substance,measurement,setting,value
39 (GSGVPTDVKCRGSPQCIQPCKDAGMRFGKCMNGKCHCTPK) [compound 39],Activity of 5HT3a with peptide (percentage of the reference compound),5HT3a,55%
same,"Activity of 5HT3a with peptide, expressed as a percentage of the reference compound",5HT3a,67%
same,"Activity of TRPV1 with peptide, expressed as a percentage of the reference compound",TRPV1; peptide at 0.2 μM,95%
same,Activity of TRPV1 with peptide (percentage of the reference compound),TRPV1; peptide at 20 μM,83%
same,"Activity of Kir2.1 with peptide, expressed as a percentage of the reference compound",Kir2.1; peptide at 0.2 μM,110%
same,Activity of Kir2.1 with peptide (percentage of the reference compound),Kir2.1; peptide at 20 μM,98%
same,"Activity of Nav1.7 with peptide, expressed as a percentage of the reference compound",Nav1.7; [1],42%
same,"Activity of Nav1.7 with peptide, expressed as a percentage of the reference compound",Nav1.7; [2],39%
same,Activity of Nav1.7 with peptide (percentage of the reference compound),Nav1.7; [1],108%
same,Activity of Nav1.7 with peptide (percentage of the reference compound),Nav1.7; [2],110%
same,"Activity of TRPA1 with peptide, expressed as a percentage of the reference compound",TRPA1; peptide at 0.2 μM,136%
same,Activity of TRPA1 with peptide (percentage of the reference compound),TRPA1; peptide at 20 μM,92%
same,"Activity of a4b2 with peptide, expressed as a percentage of the reference compound",α4β2; peptide at 0.2 μM,98%
same,Activity of a4b2 with peptide (percentage of the reference compound),α4β2; peptide at 20 μM,91%
same,"Activity of NR2B with peptide, expressed as a percentage of the reference compound",NR2B; peptide at 0.2 μM,102%
same,Activity of NR2B with peptide (percentage of the reference compound),NR2B; peptide at 20 μM,85%
same,"Activity of GABA with peptide, expressed as a percentage of the reference compound",GABA; peptide at 0.2 μM,111%
same,Activity of GABA with peptide (percentage of the reference compound),GABA; peptide at 20 μM,108%
same,"Activity of Nav1.5 with peptide, expressed as a percentage of the reference compound",Nav1.5; [3],108%
same,"Activity of Nav1.5 with peptide, expressed as a percentage of the reference compound",Nav1.5; [4],105%
same,Activity of Nav1.5 with peptide (percentage of the reference compound),Nav1.5; [3],111%
same,Activity of Nav1.5 with peptide (percentage of the reference compound),Nav1.5; [4],114%
same,"Activity of hERG with peptide, expressed as a percentage of the reference compound",hERG; peptide at 0.2 μM,103%
same,Activity of hERG with peptide (percentage of the reference compound),hERG; peptide at 20 μM,84%
same,"Activity of Kv1.1 with peptide, expressed as a percentage of the reference compound",Kv1.1; peptide at 0.2 μM,37%
same,Activity of Kv1.1 with peptide (percentage of the reference compound),Kv1.1; peptide at 20 μM,21%
same,"Activity of Kv1.3 with peptide, expressed as a percentage of the reference compound",Kv1.3; peptide at 0.2 μM,7%
same,Activity of Kv1.3 with peptide (percentage of the reference compound),Kv1.3; peptide at 20 μM,1%
same,"Activity of Kv1.2 with peptide, expressed as a percentage of the reference compound",Kv1.2; peptide at 0.2 μM,96%
same,Activity of Kv1.2 with peptide (percentage of the reference compound),Kv1.2; peptide at 20 μM,84%
same,"Activity of Kv2.1 with peptide, expressed as a percentage of the reference compound",Kv2.1; peptide at 0.2 μM,118%
same,Activity of Kv2.1 with peptide (percentage of the reference compound),Kv2.1; peptide at 20 μM,102%
same,"Activity of Cav2.1 with peptide, expressed as a percentage of the reference compound",Cav2.1; peptide at 0.2 μM,96%
same,Activity of Cav2.1 with peptide (percentage of the reference compound),Cav2.1; peptide at 20 μM,96%
same,"Activity of Cav2.2 with peptide, expressed as a percentage of the reference compound",Cav2.2; peptide at 0.2 μM,117%
same,Activity of Cav2.2 with peptide (percentage of the reference compound),Cav2.2; peptide at 20 μM,98%
same,"Activity of NR2A with peptide, expressed as a percentage of the reference compound",NR2A; peptide at 0.2 μM,106%
same,Activity of NR2A with peptide (percentage of the reference compound),NR2A; peptide at 20 μM,82%
same,"Activity of a3b4 with peptide, expressed as a percentage of the reference compound",α3β4; peptide at 0.2 μM,99%
same,Activity of a3b4 with peptide (percentage of the reference compound),α3β4; peptide at 20 μM,93%
GSQIDTNVKCSGSSKCVKICIDRYNTRGAKCINGRCTCYP [SEQ ID NO: 20],Activity on potassium channels,panel of 20 ion channels,showed activity on various subsets of potassium channels
GSVVIGQRCYRSPDCYSACKKLVGKATGKCTNGRCDC [SEQ ID NO: 26],Activity on potassium channels,panel of 20 ion channels,showed activity on various subsets of potassium channels
